Data from publication PMC3901001.

Target: full-length human α isoform of CaMKII (CaMKIIα), wild type (human) (UniProt Q9UQM7)
Experiment: single-molecule TIRF colocalisation; mixed with ATP in the absence of Ca2+/CaM (37°C by the DLS legend)

Chain of UniProt Q9UQM7 (Q9UQM7 whole entry, canonical isoform): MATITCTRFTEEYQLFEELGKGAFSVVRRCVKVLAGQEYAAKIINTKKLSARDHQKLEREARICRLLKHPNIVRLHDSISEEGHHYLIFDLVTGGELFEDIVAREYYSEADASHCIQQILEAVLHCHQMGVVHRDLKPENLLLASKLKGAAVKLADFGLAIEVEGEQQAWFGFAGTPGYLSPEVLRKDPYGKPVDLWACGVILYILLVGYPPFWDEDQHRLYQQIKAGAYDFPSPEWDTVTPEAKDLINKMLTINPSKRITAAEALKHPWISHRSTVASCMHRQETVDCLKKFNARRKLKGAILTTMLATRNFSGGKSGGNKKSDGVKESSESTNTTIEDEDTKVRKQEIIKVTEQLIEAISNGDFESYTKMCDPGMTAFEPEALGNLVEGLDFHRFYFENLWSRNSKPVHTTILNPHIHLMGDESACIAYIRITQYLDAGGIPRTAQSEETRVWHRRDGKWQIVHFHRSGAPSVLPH

“CaMKII^T286D, constitutively active mutant of full-length human CaMKIIα (enzyme)” showed a percent colocalisation (plateau) of 60%.
